Test results reported in the DeepSol protein solubility set.

experiment: soluble on expression in E. coli; label from the status in PepcDB or PDB records

Row | Sequence | soluble on expression in E. coli
1 | MIINKPSRVRPDGRGKVTGELKYMTDLSFPGMLYGKVLRSAYPHAEIVSVCTIKAEKMEGVQAVVTHKDVPGLNRFGIVIPDQPVLCEDRVRYVGDAIAAVAAETEEIAEAALELIQVEYKELEVMDSPEKALRPNAQRLHEDGNILHRAFFSNGDVEEGFQASDTVFEETYELPRQMHTYMETEGGVAVPEDDGGFTMYAGTQHGYKDRFQLARIFDIPEEKIRIVSSPMGGSFGGKDELNIQPYAALLALKSGRPVKIHQTRKESVRSGIKRHPMKITIKTGADHSGNLLAHDVKIVADTGAYATLGPAVLDFSVEHAAGPYRIPNIRTEGISVFTNNGVAGEFRGFGGNQITFALETHLDRLSGMLGIDPLELRRKNIRKPHDLGPLEHRIAPTDGAAQVLNAISKSPILKKTSRNCGYLQRGTGAAITMHGGGLGFGRMDAAGGRLSLSSEGKITASFGFEECGQGILAAIEQIVMEELGCAAEDISIVIGDTAKVPKSGSSTASRGTSMVWHAIQRLKKPFLAQLKKRAAEWSGCSAENLIPGAAGLRDKNTKALVVTYKELAEKGPLAEETAFDFPTTPDPVVGGHFLYSFGAAAVEVEVDLLTGDVKLIDCEHAIAAGPVVSPQGYRGQIEGGAAMALGYTLMEEAKMTDGRYAAENLDHYLIPGIKDVPDMKLIAIEDLMKGDVYGPRGVGEIGTIAITPAIVKAVHDAVGCWINKLPISREELLEAIDRKGLKQWT | not soluble
2 | MIIVKNHKFKLDLLQNEANKEKFEGNTACSTAAYTLVREDASTGLTYTADISKVGNQISGEPAQRIKIREHRRIPKFDLPNLKVSKVYKLPLEASYAKGLLLLLIFCFGLSGCNTSKRLPYSHKYSYKELSKDDPHNLTYKGHYKVGKNYKIKGKTYKPHNPKSFTETGYASWYGGLKDGFHGKKTANGDRFNRNLLTAAHKTLPLPCLVKVTNKANNKAVILMVNDRGPFKKNRIIDVSQRAAEILAFKNQGITKVKIEYLPNETEKFLKNINLKKPQSKTLAKNSKKSSSNKVTNNNKCSVNCHIKLINLKYKLAVTP | soluble
3 | MIKESTLHISFMAVRQTMRRVISRIVPPREVEDIVQETYVRICQVENKEAIKQPRSFLLKTAKNLAIDHLKRADIRLVDTVDNMAEFEHLVSADDAIYQQVATDKEFAQFCEAIRQLPIQCRKAFVLKKVYGYSQKEIAKKLAISESTVEKHIGLGVKRCTYFMMQLTKEERTETMKNSKKTHQVRRDL | not soluble
4 | MIKKDYAQIKETLYTETLENGLKVYLLPKNDFQKTYGLFTTDYGSIDNTFVPIGQEEMIEVPDGIAHFLEHKMFEKEDGDVFQKFGQQGASANAFTSFTKTSYLFSTTDQVTQNLETLLDFVQSPYFTKETVEKEKGIIGQEIQMYLDDPNWRLFFGILGNLYPKHPLHIDIAGTVASIAEITAEDLYTCYNTFYHPSNMTLFVVGKMDPEALMAFIRENQAAKEFPAAQPIRRHFPEETAADIVKESAIEMTVTRAKVLVGLKGLDEVPTTGRDLMKYQVTVNLLLQLLFGNTSQNYLALYDEGLLDDSFSYDFNLDRSFHFADIGGDSEQPEVLAERIEAILLSATTSPELTEENLSLLKKKMIGKYFQSLNSLEYIANQFSQSLFGETTLFDKIEVIESIQLADVRQVAETFIREEGLSRFYMYPKGETEQ | not soluble
5 | MIKKVIKRDGREKDFDILRIEHAIKKAEKSIEVNECWDDDALCDILMKIDETNLKKIEIEKVQDIVIDVLNKYNKNVAKAYSDYRKERTKIRQDKSNLMKIIDKIGVETDRDNANVGNNFSSKLLRIASESNKVHNLLK | not soluble
6 | MIKMAQLEDIRKMYFMEGLSIREINRRTGIHRDTISKYISLEEPKPPKYKLTKERTHPVLGPYIPMIKQIIEDDKTRHRKQRHTGTKIFETLKKEGFSGGYNTVMDYLRKEYRKQREAFLPLEFELGAYAEVDWTEAYFYLKGKETKAHLFVMKLRGSGGFYVRAYPFEKQEAFFDGHIKCFEFMNG | not soluble
7 | MIKNPKVLILTAHYGNGHVQVAKTLEQTFRQKGIEDVIVCDLFGESHPFITDITKYLYLKSYTIGKELYRLFYYGVEKIYDKKIASWYANFGRKRLKTLLQVEKPDIVINTFPIIAVPELKKQTGISIPVYNVLTDFCVHKIWIHREVDRYFVATDHVKELMVDIGVPAEQIVETGIPIRSSFELKVNPEIIYTKYQLCKNKKILLIVAGAHGVLGNVKELCQSFMSVPNLQVVVVCGKNEALKQDLLSLQKQNSDALKVFGYVENIDELFRVTSCMITKPGGITLSEAAALQVPVILYKPVPGQENENAMYFERKGAAVVIRDDSEVFAKTEALLQDDVKLLQMKEAMKSIYLPEPAGHIVDAILAENHAEPRHIPIKSPALAQSFTLEHHHHHH | not soluble
8 | MIKQVGNTQINPLHRLTCHCGKVELELTLPNGIEKPRRCDCSMCRRRGAIVASVPLSGIRIVQGDDVLKLYQFNTHTAKHFFCSECGIYTHHQRRSDPSEYGYNVGCLEGVNPYELGDIEVMDGVNHPSDRLEHHHHHH | not soluble
9 | MIKTGELKYIEEKIERREDLDEDDIVYMYDEADVNDLGKLARSITDKISGKRVSFVSNIILNYTNICNVRCKFCAFYRKSGEYDAYTMTPDGVIDEIRKYYPYGIRQILIQGGVNPNLDLDYYLTVFRKIRENFTEAGINGLSAAEINFISKKAHLTYEETILKLKEAGLETIPGAGAEILDEDVRVKLGRPRGSGRQWLEIMETAHRLGVKTTATMVYGHIESSMDKARHLISIRNLQKKYHGFLSFTPWNMEPDNTELQKEGILKYRAGAEDVIRNIAISRIVFNYDLPIIQSSWLTNGVEMGQLAILYGANDWGGTIYDEKVIPATGKRVGNLRKEIIIRSIKDLGMVPVERDNLYREIAVYE | not soluble
10 | MILELDCGNSLIKWRVIEGAARSVAGGLAESDDALVEQLTSQQALPVRACRLVSVRSEQETSQLVARLEQLFPVSALVASSGKQLAGVRNGYLDYQRLGLDRWLALVAAHHLAKKACLVIDLGTAVTSDLVAADGVHLGGYICPGMTLMRSQLRTHTRRIRYDDAEARRALASLQPGQATAEAVERGCLLMLRGFVREQYAMACELLGPDCEIFLTGGDAELVRDELAGARIMPDLVFVGLALACPIE | not soluble
11 | MILSMTGFGKHTIQFADKKITATIKSLNSKQFDLSTKISSRYRDRELPLRALVSADIGRGKVDFSLFLEESGSTDVVSQIFDTEKMSSYFFQLKEFGEKMGVEVPAGGWFEQLLRIPGVIQIDEDKEEEIPEDEWAVVIETCRRALDQLIGFREQEGAMLEQVFTEKISNISSLLLQIEQYEPDRIQRIKERIEENLTKISEKDYDKNRFEQEMIYYIEKLDVNEEKHRLRNHLSYFLQTMQGEPGQGKKLSFIAQEIGREINTLGSKSNHVEMQQIVVQMKDELEQIKEQVLNVL | not soluble
12 | MILVDSDVLIAHLRGVVAARDWLVSARKDGPLAISVVSTAELIGGMRTAERREVWRLLASFRVQPATEVIARRAGDMMRRYRRSHNRIGLGDYLIAATADVQDLQLATLNVWHFPMFEQLKPPFAVPGHRPRA | not soluble
13 | MILYDAIMYKYPNAVSRKDFELRNDGNGSYIEKWNLRAPLPTQAELETWWEELQKNPPYEPPDQVELLAQELSQEKLARKQLEELNKTLGNELSDIKLSLLSLKGDYAELEHHHHHH | soluble
14 | MIMEHEYRLEVRGYELDSFGHVNNAVYLNYLEAARWDLCSKLNLTDYNESNELFIVVIETNIKYIRELKLFDKVLIKTELTYEDDYLIFKHNIYNEVTKRKASVAKSKMVLVSKQRIIYEIPQFIKDKLDICAYGLEHHHHHH | not soluble
15 | MIMFNYQQTSQSCVKCGKCIPSCTIYNIHPDEVTSPRGFIDLLGAYQRGELELDKNAKDIFEKCFLCTNCTYVCPNLLPTDQVIENVRAEIAQKFGIAWFKRAYFFLLRNRWLMDWGLEHHHHHH | not soluble
16 | MINHIEEPSSMDAHAVSFRVEKDDLSGAVSWVARNLPTKPTQPVLRAVVITADDEGLEFAGFDYEVSTKVHINADVRQPGRIAVAGKLMSDIIGTLPNKTIEVFVEGTQVQVVCGSSRFELPLIPLDEYPPLPQLPAVTGAIDPNLFTDAVLQVAAAAGRDETLPMLTGIHMEIDGENVTLTATDRFRLALRRFTWSPANPEAKAKLLIPAKNLSDNARSLDSGSTEPVEIAVGTGENIGAEGLFGIHIDNRQTTTRMLDADFPNVSPLLPKVHNAMASVEISALSDAIRRVALVAERNAQIRMQFTRDEVILSAGGSDAGHAEESVPCAFTGDQEFLIAFNSAYLRDGLSVIRTSRVVFGFTEPSRPAIMIPEPETLPEASADGTYPTPDTEFTYLLMPVRLPG | soluble
17 | MINLTHIASSLARAALSDSTKPKMERAINVASHIAGKVALQVTSSLLEQKGLLNERQQKGLSMILKALSGKEPVNNVETHEGGGRFNLARAAFDVASVVWERDKSMHNVMSFLGVSDSKGKMLFSLGKKLADAMAKPEPGKDNSEATNARHAYFSSNLKLNKLMNDLTDQVFNKIR | not soluble
18 | MINSPRVCIQVQSVYIEAQSSPDNERYVFAYTVTIRNLGRAPVQLLGRYWLITNGNGRETEVQGEGVVGVQPLIAPGEEYQYTSGAIIETPLGTMQGHYEMIDENGVPFSIDIPVFRLAVPTLIHMGHHHHHHSH | not soluble
19 | MIPDQRRELMLRQLRKHQVLSVHQLMEMFDCSHMTIRRDIAQLEQEGRAYSVTGGVRIASQVHSEPSHQSKAVVELPHKQGMARLAAGLLHPDMTIYLDAGTSTLEIVPHIIALSGMTVVTNDFGVVNALADAAHVDVIHTGGLLDHPNRSSVGGLAAATLRQLATDVAFMSTSSWDLQRGTTTPSALKVEVKQAAMQSASQTVLVATSSKYGTFGMYKVAGLDQFDTIISDAALAEAAADGIRKQRIELLLAPVGGRSKLEHHHHHH | not soluble
20 | MIPDTEQELINQYLKKISKIPLLTPEEEKELARRAKQGDKEALKKLVESNLRFVVSVAKQYIGYGLPFSELIAAGNLGLLEAAKRFDPDRGVKFISYAVWWIRQAIMQALSQQTGAVRIPLKQSHIINKISHIYGELSKKLEREPSPEEIAEELSKQMIAKELEKELGREPTEEEIEERFKKEGYKITPEEVEKYLQVCRVPLSLDAPVGENEDTFFIDFLSKHGTAEVEEKVIQEVIQKEIDDLLSKLTDKERKVIELRFGLKGNEPKTLREIGEILGLSRERVRQLETRALRKLRSLAMKRHLKDFLS | soluble
21 | MIPRRSCWLILLLNLLNVQSLLDASWWSTVAQLSTALAGHNVKPVCELPGLSPGQAQVCELFKDHMPAVSIGAQNAIQECQRQFTGHRWNCSTHYSTGMLGPIHKMATREAAFTYAILSAGVTHEIGRRCKQGLLTSCGCSDETKPKNVPTDWSWGGCGDNVEYGYKFSRDFIDIREKEHDPKRNHDNGRSLMNRRNNEAGRKILKRHRKPKCKCHGVSGACNMKTCWMQLPSMEQVGKILRNKYDKAIRVQINDRGNLQLLADEATKERKTRALPTDLVFMDDSPDYCRFDRHSGTLGTEGRVCKRGSGGAEGCDSLCCGRGYNTYTQEVKSKCNCKFEWCCKVVCQTCNNVTQVDICK | not soluble
22 | MIPSVSPQQDALTGQPLRVVERDGVHYTLLGTAHISQASVAAVKQEVESGCYDAIAVELDAQRLQALCDPDTLAKLDLIQVIRKGQLALFAANLALAAYQRRLAKQLGIEPGAELKTAVTMARERDLPVHLIDREVGLTFKRASAKLGFLGKMKLGGGLIAGLFAADEVGEEEIEKLKQGDMLEASFGDFANESPELYQTIIAERDRYMATRLREEVNSATPKVLVVVGAGHLTGLAKHLENDTEPPTELRALLEKVQQKKR | not soluble
